The source of these data is publication PMC5379037.

The data set addresses GST-CaWRKYa (Capsicum annuum, UniProt Q1XD53 1-546). The data set can be described thus: EMSA; 5 ug protein; EMSA: 4 C, 30 min, 5% native polyacrylamide gel in 0.5x TBE; 5 ug protein (0.5 ug in Fig. S5b); binding buffer, salt and pH not stated. (A gel shift assay detects complexes by their altered migration in electrophoresis.)

Chain of GST-CaWRKYa (Q1XD53 entry or part of it): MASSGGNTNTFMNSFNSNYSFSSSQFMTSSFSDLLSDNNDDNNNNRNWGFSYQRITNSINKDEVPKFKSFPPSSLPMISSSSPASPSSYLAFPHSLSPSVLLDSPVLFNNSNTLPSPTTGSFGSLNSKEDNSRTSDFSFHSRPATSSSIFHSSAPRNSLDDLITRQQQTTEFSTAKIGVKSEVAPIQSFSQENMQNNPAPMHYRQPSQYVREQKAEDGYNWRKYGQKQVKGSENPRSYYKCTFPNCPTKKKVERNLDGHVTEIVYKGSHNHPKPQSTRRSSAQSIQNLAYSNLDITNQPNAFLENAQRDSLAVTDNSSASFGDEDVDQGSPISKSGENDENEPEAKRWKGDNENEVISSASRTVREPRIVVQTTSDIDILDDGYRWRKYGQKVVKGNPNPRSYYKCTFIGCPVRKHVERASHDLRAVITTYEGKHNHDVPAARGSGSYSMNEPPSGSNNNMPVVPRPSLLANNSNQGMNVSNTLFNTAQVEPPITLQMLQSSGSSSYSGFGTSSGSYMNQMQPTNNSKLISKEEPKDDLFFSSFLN

B1: mW-box probe (dsDNA)
DNA 1: CGTAGACGGTAGACGGAGTAGACGTTTTA
DNA 2: TAAAACGTCTACTCCGTCTACCGTCTACG
With B1, the binding result is “no binding”.

B2: W-box probe (dsDNA)
DNA 1: CGTTGACCGTTGACCGAGTTGACTTTTTA
DNA 2: TAAAAAGTCAACTCGGTCAACGGTCAACG
Take B2: the binding result was “binds”.
